{"source": "patent US20100247590A1", "about": "“Peptide-Based Systems For Delivery Of Cosmetic Agents” (JOHNSON & JOHNSON, priority 2009, published 2010)", "binders": {"B1": {"name": "peptide HC260 (peptide)", "peptide": "MASGSDPSAQSQLPDKHSGLHERAPQRYGPEPEPEPEPIPEPPKEAPVVIEKPKPKPKPKPKPPAHDHKNQKETHQRHAAGSGGGGSPMLSENWLTNHPQNGGAGGAGMLSENWLTNHPQNGK", "modifications": "not checked"}}, "biological_target": "streptavidin (coated on iron oxide particles or on fluorescently-labeled polystyrene particles), P22629", "sequence (P22629 37-163 limits assumed)": "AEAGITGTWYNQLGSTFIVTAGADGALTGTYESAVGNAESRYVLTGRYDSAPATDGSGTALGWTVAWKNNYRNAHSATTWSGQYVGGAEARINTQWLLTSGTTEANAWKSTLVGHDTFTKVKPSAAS", "assay": "cell-based or functional assay"}
{"binder": "B1", "values": [{"measurement": "Color scale (0-5); sequential coloring of hair with streptavidin-coated iron oxide beads (color scale 0-5)", "value": 2}]}
